Assays:
purified tubulin dimer [1] = assay: SPR; VASH1 L226A/C169S
purified tubulin dimer [2] = assay: SPR

| Kd (purified tubulin dimer [1]) | Kd (purified tubulin dimer [2]) | Binder |
| --- | --- | --- |
| 2100 nM | – | VASH1-SVBP complex, VASH1 L226A (complex) chain 1: not shown chain 2: MDPPARKEKTKVKESVSRVEKAKQKSAQQELKQRQRAEIYALNRVMTELEQQQFDEFCKQMQPPGE |
| – | 320 nM | VASH1^44–315-SVBP^1–66 heterodimer (complex) chain 1: not shown chain 2: MDPPARKEKTKVKESVSRVEKAKQKSAQQELKQRQRAEIYALNRVMTELEQQQFDEFCKQMQPPGE |

Reference: PMC6937246 (2019)
